Results from publication PMC5429695.

What was measured:
[1] = target: RfDoc1a, group 1a dockerin, thioredoxin A fusion, wild type (R. flavefaciens FD-1); test: ITC; 308 K; dockerin in the cell (stirred at 307 revolutions/min) titrated with 28 injections of 10 uL cohesin at 220 s intervals; proteins in 50 mM HEPES pH 7.5, 0.5 mM CaCl2, 0.5 mM TCEP; single-site model
[2] = target: RfDoc1b, group 1b dockerin, thioredoxin A fusion, wild type (R. flavefaciens FD-1); test: as above

| Substance | Ka [1] | dH [1] | stoichiometry N [1] | Ka [2] | dH [2] | stoichiometry N [2] |
| --- | --- | --- | --- | --- | --- | --- |
| RfCohScaA, ScaA cohesin with C-terminal hexa-histidine tag (domain or fragment) | 5.03e+08 M⁻¹ | -38.9 kcal/mol | 1 | 2.67e+07 M⁻¹ | -61.2 kcal/mol | 1 |
| RfCohScaB3 E84A + H121A, C-terminal hexa-histidine tag (domain or fragment) | 1.65e+06 M⁻¹ | -66.9 kcal/mol | 1 | – | – | – |
| RfCohScaB3 E84A + N124A, C-terminal hexa-histidine tag (domain or fragment) | 1.53e+07 M⁻¹ | -55 kcal/mol | 1 | – | – | – |
| RfCohScaB3 E84A, C-terminal hexa-histidine tag (domain or fragment) | 3.62e+07 M⁻¹ | -55.5 kcal/mol | 1 | – | – | – |
| RfCohScaB3 H121A + N124A, C-terminal hexa-histidine tag (domain or fragment) | 2.28e+06 M⁻¹ | -46.4 kcal/mol | 1 | – | – | – |
| RfCohScaB3 H121A, C-terminal hexa-histidine tag (domain or fragment) | 2.66e+07 M⁻¹ | -52.6 kcal/mol | 1 | – | – | – |
| RfCohScaB3 K77A, C-terminal hexa-histidine tag (domain or fragment) | 4.23e+08 M⁻¹ | -57.4 kcal/mol | 1 | – | – | – |
| RfCohScaB3 L79A, C-terminal hexa-histidine tag (domain or fragment) | 7.59e+06 M⁻¹ | -51.9 kcal/mol | 1 | – | – | – |
| RfCohScaB3 N68A, C-terminal hexa-histidine tag (domain or fragment) | 1.1e+08 M⁻¹ | -58.6 kcal/mol | 1 | – | – | – |
| RfCohScaB3 N75A + E84A, C-terminal hexa-histidine tag (domain or fragment) | 2.08e+07 M⁻¹ | -51.8 kcal/mol | 1 | – | – | – |
| RfCohScaB3 N75A + H121A, C-terminal hexa-histidine tag (domain or fragment) | 2.49e+06 M⁻¹ | -50.8 kcal/mol | 1 | – | – | – |
| RfCohScaB3 N75A + N124A, C-terminal hexa-histidine tag (domain or fragment) | 1.86e+06 M⁻¹ | -56.3 kcal/mol | 1 | – | – | – |
| RfCohScaB3 N75A, C-terminal hexa-histidine tag (domain or fragment) | 9.09e+07 M⁻¹ | -52.7 kcal/mol | 1 | – | – | – |
| RfCohScaB3 N124A, C-terminal hexa-histidine tag (domain or fragment) | 5.54e+07 M⁻¹ | -52.8 kcal/mol | 1 | – | – | – |
